From article PMC10897159, “Structural insights into the activation mechanism of antimicrobial GBP1” (The EMBO Journal, 2024)
Where a chain is given by its changes, count along the chain named. Names may count otherwise.

Experiments:
[1] = target: GBP1 Δ207-223, non-farnesylated (human) (UniProt P32455); test: cross-linking; BS3 at 20-times molar excess, 20 µM protein, with 200 µM GDP, 300 µM AlCl3, 10 mM NaF (GDP•AlFx); 50 mM HEPES, 150 mM NaCl, 5 mM MgCl2; SDS-PAGE
[2] = target: GBP1 M139E, non-farnesylated (human) (UniProt P32455); test: SEC; analytical SEC (Superdex 200 5/150), 20 µM protein with 200 µM GDP, 300 µM AlCl3, 10 mM NaF (GDP•AlFx); 50 mM Tris-HCl pH 7.9, 150 mM NaCl, 5 mM MgCl2
[3] = target: GBP1 M139R, non-farnesylated (human) (UniProt P32455); test: as above
[4] = target: the molecule itself; test: as above
[5] = target: the molecule itself; test: cross-linking; BS3 at 20-times molar excess, 20 µM protein, with 200 µM GDP, 300 µM AlCl3, 10 mM NaF (GDP•AlFx); 50 mM HEPES, 150 mM NaCl, 5 mM MgCl2; SDS-PAGE
[6] = target: the molecule itself; test: specific GTPase activity against protein concentration (HPLC), quadratic fit; apparent Kd of dimer formation; non-farnesylated GBP1, 1 mM GTP, 37 °C, 50 mM Tris-HCl pH 7.9, 150 mM NaCl, 5 mM MgCl2; dimer to monomers
[7] = target: the molecule itself; test: light scattering-based polymerization assay; 10 µM farnesylated GBP1, polymerization started with 1 mM GTP (for the pivot point mutants also with LPS added); 50 mM Tris-HCl pH 7.9, 150 mM NaCl, 5 mM MgCl2; absorbance at 350 nm over 40 min; dimers to polymers

For “GBP1 Δ207-223, non-farnesylated (from UniProt P32455 1-592) (natural protein)”, the stoichiometry N [1] was 2.

“GBP1 M139E, non-farnesylated (from UniProt P32455 1-592) (natural protein)” gave a stoichiometry N [2] of 2.

“GBP1 M139R, non-farnesylated (from UniProt P32455 1-592) (natural protein)” gave a stoichiometry N [3] of 2.

B1: isolated LG domain of GBP1 Δ207-223 (domain or fragment, human, UniProt P32455 1-317, looked up)
chain: MASEIHMTGPMCLIENTNGRLMANPEALKILSAITQPMVVVAIVGLYRTGKSYLMNKLAGKKKGFSLGSTVQSHTKGIWMWCVPHPKKPGHILVLLDTEGLGDVEKGDNQNDSWIFALAVLLSSTFVYNSIGTINQQAMDQLYYVTELTHRIRSKSSPDENENEVEDSADFVSFFPDFVWTLRDFSLDLEADGQPLTPDEYLTYSLGGGSLCIRKFFPKKKCFVFDRPVHRRKLAQLEKLQDEELDPEFVQQVADFCSYIFSNSKTKTLSGGIQVNGPRLESLVLTYVNAISSGDLPCMENAVL
notes: LG domain of GBP1, human; stop codon in place of A318; also called α4’ variant LG domain construct; source: E. coli, pQE-80L, purified (Ni Sepharose HP, Superdex 200)
B1 was tested, and the “stoichiometry N” value [4] was 2.

B2: GBP1 Δ207-216, non-farnesylated (natural protein, human, UniProt P32455 1-592, looked up)
chain: MASEIHMTGPMCLIENTNGRLMANPEALKILSAITQPMVVVAIVGLYRTGKSYLMNKLAGKKKGFSLGSTVQSHTKGIWMWCVPHPKKPGHILVLLDTEGLGDVEKGDNQNDSWIFALAVLLSSTFVYNSIGTINQQAMDQLYYVTELTHRIRSKSSPDENENEVEDSADFVSFFPDFVWTLRDFSLDLEADGQPLTPDEYLTYSLGGGSETFNLPRLCIRKFFPKKKCFVFDRPVHRRKLAQLEKLQDEELDPEFVQQVADFCSYIFSNSKTKTLSGGIQVNGPRLESLVLTYVNAISSGDLPCMENAVLALAQIENSAAVQKAIAHYEQQMGQKVQLPTETLQELLDLHRDSEREAIEVFIRSSFKDVDHLFQKELAAQLEKKRDDFCKQNQEASSDRCSALLQVIFSPLEEEVKAGIYSKPGGYRLFVQKLQDLKKKYYEEPRKGIQAEEILQTYLKSKESMTDAILQTDQTLTEKEKEIEVERVKAESAQASAKMLQEMQRKNEQMMEQKERSYQEHLKQLTEKMENDRVQLLKEQERTLALKLQEQEQLLKEGFQKESRIMKNEIQDLQTKMRRRKACTIS
notes: GBP1, human, full-length construct; also called helix α4’ variant; source: E. coli, pQE-80L, purified (Ni Sepharose HP, Superdex 200)
With B2 the “stoichiometry N” value [5] was 2 and the “fold lower dimerization affinity than wild-type GBP1” value [6] was 1.8 fold.

B3: GBP1 Δ207-216, farnesylated (natural protein, human, UniProt P32455 1-592, looked up)
chain: B2 chain
modifications: farnesyl moiety at the C-terminal CaaX box motif
notes: GBP1, human, full-length construct; also called helix α4’ variant
B3: binds [5].

B4: isolated LG domain of GBP1 Δ207-213 (domain or fragment, human, UniProt P32455 1-317, looked up)
chain: MASEIHMTGPMCLIENTNGRLMANPEALKILSAITQPMVVVAIVGLYRTGKSYLMNKLAGKKKGFSLGSTVQSHTKGIWMWCVPHPKKPGHILVLLDTEGLGDVEKGDNQNDSWIFALAVLLSSTFVYNSIGTINQQAMDQLYYVTELTHRIRSKSSPDENENEVEDSADFVSFFPDFVWTLRDFSLDLEADGQPLTPDEYLTYSLGGGSGGGSQKDETFNLPRLCIRKFFPKKKCFVFDRPVHRRKLAQLEKLQDEELDPEFVQQVADFCSYIFSNSKTKTLSGGIQVNGPRLESLVLTYVNAISSGDLPCMENAVL
notes: as for B1
B4 was tested, and the “stoichiometry N” value [4] was 2.

B5: isolated LG domain of GBP1 Δ207-216 (domain or fragment, human, UniProt P32455 1-317, looked up)
chain: MASEIHMTGPMCLIENTNGRLMANPEALKILSAITQPMVVVAIVGLYRTGKSYLMNKLAGKKKGFSLGSTVQSHTKGIWMWCVPHPKKPGHILVLLDTEGLGDVEKGDNQNDSWIFALAVLLSSTFVYNSIGTINQQAMDQLYYVTELTHRIRSKSSPDENENEVEDSADFVSFFPDFVWTLRDFSLDLEADGQPLTPDEYLTYSLGGGSETFNLPRLCIRKFFPKKKCFVFDRPVHRRKLAQLEKLQDEELDPEFVQQVADFCSYIFSNSKTKTLSGGIQVNGPRLESLVLTYVNAISSGDLPCMENAVL
notes: as for B1
For B5, the “stoichiometry N” value [4] was 2.

B6: GBP1 D199A, farnesylated (natural protein, human, UniProt P32455 1-592, looked up)
chain: MASEIHMTGPMCLIENTNGRLMANPEALKILSAITQPMVVVAIVGLYRTGKSYLMNKLAGKKKGFSLGSTVQSHTKGIWMWCVPHPKKPGHILVLLDTEGLGDVEKGDNQNDSWIFALAVLLSSTFVYNSIGTINQQAMDQLYYVTELTHRIRSKSSPDENENEVEDSADFVSFFPDFVWTLRDFSLDLEADGQPLTPAEYLTYSLKLKKGTSQKDETFNLPRLCIRKFFPKKKCFVFDRPVHRRKLAQLEKLQDEELDPEFVQQVADFCSYIFSNSKTKTLSGGIQVNGPRLESLVLTYVNAISSGDLPCMENAVLALAQIENSAAVQKAIAHYEQQMGQKVQLPTETLQELLDLHRDSEREAIEVFIRSSFKDVDHLFQKELAAQLEKKRDDFCKQNQEASSDRCSALLQVIFSPLEEEVKAGIYSKPGGYRLFVQKLQDLKKKYYEEPRKGIQAEEILQTYLKSKESMTDAILQTDQTLTEKEKEIEVERVKAESAQASAKMLQEMQRKNEQMMEQKERSYQEHLKQLTEKMENDRVQLLKEQERTLALKLQEQEQLLKEGFQKESRIMKNEIQDLQTKMRRRKACTIS
modifications: farnesyl moiety at the C-terminal CaaX box motif
notes: GBP1, human, full-length construct with D199A in helix α4; also called pivot point mutant
B6: binds [7].

B7: GBP1 D199A, non-farnesylated (natural protein, human, UniProt P32455 1-592, looked up)
chain: B6 chain
notes: GBP1, human, full-length construct with D199A in helix α4; also called pivot point mutant; source: E. coli, pQE-80L, purified (Ni Sepharose HP, Superdex 200)
B7: binds [5].

B8: GBP1 D199K, farnesylated (natural protein, human, UniProt P32455 1-592, looked up)
chain: B6 chain with A199K
modifications: farnesyl moiety at the C-terminal CaaX box motif
notes: GBP1, human, full-length construct with D199K in helix α4; also called pivot point mutant
B8: binds [7].

B9: GBP1 D199K, non-farnesylated (natural protein, human, UniProt P32455 1-592, looked up)
chain: B6 chain with A199K
notes: GBP1, human, full-length construct with D199K in helix α4; also called pivot point mutant; source: E. coli, pQE-80L, purified (Ni Sepharose HP, Superdex 200)
B9: binds [5].

B10: GBP1 Δ207-213, farnesylated (natural protein, human, UniProt P32455 1-592, looked up)
chain: MASEIHMTGPMCLIENTNGRLMANPEALKILSAITQPMVVVAIVGLYRTGKSYLMNKLAGKKKGFSLGSTVQSHTKGIWMWCVPHPKKPGHILVLLDTEGLGDVEKGDNQNDSWIFALAVLLSSTFVYNSIGTINQQAMDQLYYVTELTHRIRSKSSPDENENEVEDSADFVSFFPDFVWTLRDFSLDLEADGQPLTPDEYLTYSLGGGSGGGSQKDETFNLPRLCIRKFFPKKKCFVFDRPVHRRKLAQLEKLQDEELDPEFVQQVADFCSYIFSNSKTKTLSGGIQVNGPRLESLVLTYVNAISSGDLPCMENAVLALAQIENSAAVQKAIAHYEQQMGQKVQLPTETLQELLDLHRDSEREAIEVFIRSSFKDVDHLFQKELAAQLEKKRDDFCKQNQEASSDRCSALLQVIFSPLEEEVKAGIYSKPGGYRLFVQKLQDLKKKYYEEPRKGIQAEEILQTYLKSKESMTDAILQTDQTLTEKEKEIEVERVKAESAQASAKMLQEMQRKNEQMMEQKERSYQEHLKQLTEKMENDRVQLLKEQERTLALKLQEQEQLLKEGFQKESRIMKNEIQDLQTKMRRRKACTIS
modifications: farnesyl moiety at the C-terminal CaaX box motif
notes: as for B3
B10: binds [5].

B11: GBP1 Δ207-213, non-farnesylated (natural protein, human, UniProt P32455 1-592, looked up)
chain: B10 chain
notes: as for B2
With B11 the “stoichiometry N” value [5] was 2 and the “fold lower dimerization affinity than wild-type GBP1” value [6] was 3 fold.
